# Test results from patent US20090131277A1 (PROSCAN RX PHARMA, published 2009).
# Biological target: T1, prostate-specific membrane antigen (PSMA) (human, UniProt Q04609 44-750, limits assumed, 125I-labelled in Examples 2 and 8 (site of iodination not stated); unlabelled in Examples 5 and 6)
# T1 construct: also called purified recombinant PSMA
# Assay: competition radioligand binding: 1 nM 125I-PSMA on plate-coated mimetope (SEQ ID NO:24), with 0 or 10 uM of the soluble peptide as competitor
# Procedure: For a typical competition binding experiment, the mimetope is coated to a solid support such as a 96-well plate by allowing 100 ul of a 10 uM solution of the mimetope (SEQ ID NO:24) in water to dry in the wells. The wells are then washed with TBST and blocked with 3% casein in TBST to minimize non-specific binding. The wells are then incubated with 1 nM ¹²⁵I-PSMA at a specific activity of about 80 000 dpm/pmol, containing 0 or 10 uM of alanine-mimetope. The plate is incubated O/N at 4° C. then the wells are rapidly washed with TBST to remove the unbound ligand fraction, and then counted in a gamma counter. The radioactivity counted in each wells represents the bound fraction of the ligand. An alanine-mimetope that binds to PSMA will thus reduce the binding of ¹²⁵I-PSMA to the coated (SEQ ID NO:24).
# T1 sequence (Q04609 44-750 limits assumed): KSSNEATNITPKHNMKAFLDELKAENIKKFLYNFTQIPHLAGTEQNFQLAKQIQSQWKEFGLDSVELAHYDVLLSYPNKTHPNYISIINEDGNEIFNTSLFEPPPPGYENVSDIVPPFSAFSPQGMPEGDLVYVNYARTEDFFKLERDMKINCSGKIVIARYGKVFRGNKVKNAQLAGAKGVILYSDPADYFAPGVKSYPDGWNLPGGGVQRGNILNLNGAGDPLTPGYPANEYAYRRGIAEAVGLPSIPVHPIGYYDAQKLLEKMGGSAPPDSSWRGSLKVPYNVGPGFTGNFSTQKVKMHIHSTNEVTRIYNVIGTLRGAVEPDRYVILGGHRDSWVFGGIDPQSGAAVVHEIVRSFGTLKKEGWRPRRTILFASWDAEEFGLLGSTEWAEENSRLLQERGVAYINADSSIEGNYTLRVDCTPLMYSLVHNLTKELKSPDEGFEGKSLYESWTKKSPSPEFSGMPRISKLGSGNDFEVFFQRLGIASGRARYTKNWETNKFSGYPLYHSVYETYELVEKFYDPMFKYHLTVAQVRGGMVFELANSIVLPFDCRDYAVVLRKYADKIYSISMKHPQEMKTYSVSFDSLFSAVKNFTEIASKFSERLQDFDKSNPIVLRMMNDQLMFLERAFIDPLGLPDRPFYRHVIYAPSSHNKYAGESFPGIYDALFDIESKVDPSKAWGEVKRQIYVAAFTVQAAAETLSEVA
row,Binder,binding result
1,KQSYNAIT [PS68],no binding (tested: 10 uM)
2,KQSYNFAT [PS69],no binding (tested: 10 uM)
